Experimental data published in US20240025993A1, “CD19 BINDING MOLECULES AND USES THEREOF” (NOVARTIS AG, priority 2020, published 2024).
Numbering of substitutions follows the chain as printed.

B1: anti-CD3 antibody designated as CD3hi (antibody, V domains shown)
VH: EVQLVESGGGLVQPGGSLKLSCAASGFTFNTYAMNWVRQASGKGLEWVGRIRSKYNNYATYYADSVKDRFTISRDDSKSTLYLQMNSLKTEDTAVYYCVRHGNFGNSYVSWFAYWGQGTLVTVSS
VL: QAVVTQEPSLTVSPGGTVTLTCRSSTGAVTTSNYANWVQQKPGQAPRGLIGGTNKRAPWTPARFSGSLLGDKAALTLSGAQPEDEAEYFCALWYSNLWVFGGGTKLTVL
B2: anti-CD3 antibody designated as CD3lo (antibody, V domains shown)
VH: B1 VH with L81A
VL: B1 VL
B3: anti-CD3 antibody designated as CD3med (antibody, V domains shown)
VH: B1 VH with S79N, L81A, Y114H
VL: B1 VL with R23G, T31S, D71G, F89Y

The binders below were run against CD3-Fc (assay: SPR (Biacore T200, 25 C), CD3-Fc captured on anti-hFc CM5 chip, antibody as analyte, 1:1 model).
A Kd of 16 nM was found for B1 in this work.
A Kd of 48 nM was found for B2 in this work.
A Kd of 30 nM was found for B3 in this work.
